Where no end group is shown, it is not given here.
B1: SVH1C ([NPSHPLSGGGGS]4K3-NH2) (peptide)
peptide: NPSHPLSGGGGS
chain: Lys-Lys-Lys-NH2
modifications: also: four copies of chain 1 bound by their C-termini to the four amino groups of the branched tri-lysine core
notes: also called quadravalent SVH1C; lead peptide
B2: fetuin (other, UniProt P12763 19-359, looked up)
chain: IPLDPVAGYKEPACDDPDTEQAALAAVDYINKHLPRGYKHTLNQIDSVKVWPRRPTGEVYDIEIDTLETTCHVLDPTPLANCSVRQQTQHAVEGDCDIHVLKQDGQFSVLFTKCDSSPDSAEDVRKLCPDCPLLAPLNDSRVVHAVEVALATFNAESNGSYLQLVEISRAQFVPLPVSVSVEFAVAATDCIAKEVVDPTKCNLLAEKQYGFCKGSVIQKALGGEDVRVTCTLFQTQPVIPQPQPDGAEAEAPSAVPDAAGPTPSAAGPPVASVVVGPSVVAVPLPLHRAHYDLRHTFSGVASVESSSGEAFHVGKTPIVGQPSIPGGPVRLCPGRIRYFKI
modifications: 12 to 15 oligosaccharides terminating predominantly as Neu5Ac-Gal on three N-linked and three O-linked glycans
notes: acts through its sialylated glycans; also called glycoprotein fetuin; sialylated protein, fetuin

Legend:
receptor NKG2D [1] = molecular target: T1, receptor NKG2D (UniProt P26718 80-216); assay: isothermal microcalorimetry; SVH1C (100 µM) titrated into NKG2D (11 µM monomer)
T1 sequence (looked up): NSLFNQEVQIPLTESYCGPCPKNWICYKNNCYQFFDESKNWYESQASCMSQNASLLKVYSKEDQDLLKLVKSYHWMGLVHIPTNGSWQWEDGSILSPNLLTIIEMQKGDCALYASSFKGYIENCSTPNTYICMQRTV

receptor NKG2D [2] = molecular target: T1, receptor NKG2D; assay: isothermal microcalorimetry; NKG2D concentration entered as monomeric binding sites
[3] = molecular target: T2, lectin MAA from Maackia amurensis (Maackia amurensis); assay: solid-phase competition; fetuin at one-third, equal or 5-fold the molar concentration of peptide; MAA
T2 construct: Plant lectin; peroxidase-conjugated in the solid-phase assays
T2 sequence (P0DKL3 30-278): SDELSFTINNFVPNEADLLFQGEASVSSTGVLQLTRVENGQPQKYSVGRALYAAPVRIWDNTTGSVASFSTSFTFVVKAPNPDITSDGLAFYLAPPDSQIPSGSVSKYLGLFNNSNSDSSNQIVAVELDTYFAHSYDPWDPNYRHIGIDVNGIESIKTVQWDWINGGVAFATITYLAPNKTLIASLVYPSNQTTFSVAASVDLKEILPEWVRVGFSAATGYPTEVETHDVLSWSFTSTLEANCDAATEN

| Binder | Ka (receptor NKG2D [1]) [M⁻¹] | Kd (receptor NKG2D [1]) [nM] | stoichiometry, n (receptor NKG2D [2]) | percent inhibition of SVH1C binding at a 5-fold molar excess of fetuin [3] [%] |
| --- | --- | --- | --- | --- |
| B1 | 1.7e+06 | 600 | 0.71 |  |
| B2 |  |  |  | 90 |

From patent US20150299255A1 (SUSAVION BIOSCIENCES, published 2015)
